Data from PMC9482650, “Quantitative fragmentomics allow affinity mapping of interactomes” (Nature Communications, 2022).

T1: LIN7B, Q9HAP6
T1 sequence (Q9HAP6 88-185, limits assumed, looked up): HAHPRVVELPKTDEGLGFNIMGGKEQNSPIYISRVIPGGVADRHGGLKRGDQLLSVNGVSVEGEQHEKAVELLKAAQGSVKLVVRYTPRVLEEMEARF

T2: PCLO, Q9Y6V0
T2 sequence (Q9Y6V0 4491-4600, limits assumed, looked up): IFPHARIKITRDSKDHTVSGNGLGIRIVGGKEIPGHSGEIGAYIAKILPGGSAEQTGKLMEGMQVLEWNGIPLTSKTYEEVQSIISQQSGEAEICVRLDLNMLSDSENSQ

T3: SNTG2, Q9NY99
T3 sequence (Q9NY99 68-166, limits assumed, looked up): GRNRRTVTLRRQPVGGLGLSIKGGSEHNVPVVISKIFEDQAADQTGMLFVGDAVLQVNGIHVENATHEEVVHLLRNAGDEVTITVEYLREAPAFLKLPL

T4: ARHGAP21, Q5T5U3
T4 sequence (Q5T5U3 45-169, limits assumed, looked up): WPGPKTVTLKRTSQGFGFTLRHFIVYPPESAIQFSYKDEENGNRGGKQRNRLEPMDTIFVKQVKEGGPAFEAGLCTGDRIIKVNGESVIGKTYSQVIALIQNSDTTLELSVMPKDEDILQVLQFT

T5: TX1BP3, O14907
T5 sequence (O14907 10-122, limits assumed, looked up): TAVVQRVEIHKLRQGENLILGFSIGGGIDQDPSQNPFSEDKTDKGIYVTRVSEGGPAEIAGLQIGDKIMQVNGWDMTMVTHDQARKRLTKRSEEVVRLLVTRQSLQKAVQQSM

T6: LIN7A, O14910
T6 sequence (O14910 103-200, limits assumed, looked up): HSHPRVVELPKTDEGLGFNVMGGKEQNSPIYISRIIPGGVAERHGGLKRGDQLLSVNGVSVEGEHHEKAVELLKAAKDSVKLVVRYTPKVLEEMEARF

T7: DLG3_3, Q92796
T7 sequence (Q92796 374-475, limits assumed, looked up): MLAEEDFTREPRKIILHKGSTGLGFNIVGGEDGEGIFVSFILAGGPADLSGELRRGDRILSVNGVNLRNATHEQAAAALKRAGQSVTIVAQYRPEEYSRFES

T8: PARD3B_1, Q8TEW8
T8 sequence (Q8TEW8 196-299, limits assumed, looked up): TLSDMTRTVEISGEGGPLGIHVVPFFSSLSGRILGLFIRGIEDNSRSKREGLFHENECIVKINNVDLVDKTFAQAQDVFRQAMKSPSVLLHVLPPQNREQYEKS

T9: PDZD7_3, Q9H5P4
T9 sequence (Q9H5P4 857-944, limits assumed, looked up): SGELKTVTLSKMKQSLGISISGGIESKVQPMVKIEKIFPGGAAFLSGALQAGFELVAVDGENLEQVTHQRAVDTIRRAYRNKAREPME

T10: MPDZ_5, O75970
T10 sequence (O75970 695-796, limits assumed, looked up): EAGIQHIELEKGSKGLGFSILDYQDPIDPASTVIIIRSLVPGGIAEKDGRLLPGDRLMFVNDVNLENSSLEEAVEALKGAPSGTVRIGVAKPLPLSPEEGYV


What was measured:
Assay in all cases: holdup assay
Set-up in all cases: key: below the threshold = too weak to quantify, mostly under pKd 3.1 to 4
Conditions in all cases: plain residues with an end cap or a label only (N-terminal biotin on a linker: ttds)
[1] = molecular target: PICK1, Q9NRD5
[2] = molecular target: T1, LIN7B, Q9HAP6
[3] = molecular target: T2, PCLO, Q9Y6V0
[4] = molecular target: GRIP2_3, Q9C0E4
[5] = molecular target: IL16_3, Q14005
[6] = molecular target: GRIP2_5, Q9C0E4
[7] = molecular target: MAGI3_2, Q5TCQ9
[8] = molecular target: Inadl_10, Q8NI35
[9] = molecular target: T3, SNTG2, Q9NY99
[10] = molecular target: T4, ARHGAP21, Q5T5U3
[11] = molecular target: FRMPD4, Q14CM0
[12] = molecular target: LNX1_3, Q8TBB1
[13] = molecular target: DLG1_1, Q12959
[14] = molecular target: DLG1_2, Q12959
[15] = molecular target: DLG2_2, Q15700
[16] = molecular target: T5, TX1BP3, O14907
[17] = molecular target: TJP1_3, Q07157
[18] = molecular target: MAST2, Q6P0Q8
[19] = molecular target: T6, LIN7A, O14910
[20] = molecular target: Inadl_5, Q8NI35
[21] = molecular target: T7, DLG3_3, Q92796
[22] = molecular target: T8, PARD3B_1, Q8TEW8
[23] = molecular target: GRASP, Q7Z6J2
[24] = molecular target: GRIP2_7, Q9C0E4
[25] = molecular target: LDB3, O75112
[26] = molecular target: T9, PDZD7_3, Q9H5P4
[27] = molecular target: DLG1_3, Q12959
[28] = molecular target: T10, MPDZ_5, O75970

Chain of GRIP2_3, Q9C0E4 (Q9C0E4 238-339): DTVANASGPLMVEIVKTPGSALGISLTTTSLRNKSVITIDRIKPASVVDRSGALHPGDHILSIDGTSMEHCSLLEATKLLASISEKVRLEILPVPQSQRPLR
Chain of Inadl_10, Q8NI35 (Q8NI35 1673-1763): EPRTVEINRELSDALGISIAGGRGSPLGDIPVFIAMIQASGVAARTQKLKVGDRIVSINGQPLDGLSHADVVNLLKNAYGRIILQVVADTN
Chain of TJP1_3, Q07157 (Q07157 416-512): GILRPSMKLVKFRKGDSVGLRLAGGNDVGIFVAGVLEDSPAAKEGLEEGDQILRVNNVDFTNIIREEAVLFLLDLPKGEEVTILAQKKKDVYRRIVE
Chain of DLG2_2, Q15700 (Q15700 189-283): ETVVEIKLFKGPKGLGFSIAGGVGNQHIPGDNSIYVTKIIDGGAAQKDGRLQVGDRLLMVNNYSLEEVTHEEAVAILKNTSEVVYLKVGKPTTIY
Chain of IL16_3, Q14005 (Q14005 1107-1207): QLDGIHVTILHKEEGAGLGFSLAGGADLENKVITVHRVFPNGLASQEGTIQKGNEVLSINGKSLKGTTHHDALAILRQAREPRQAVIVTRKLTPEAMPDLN
Chain of GRIP2_5, Q9C0E4 (Q9C0E4 544-642): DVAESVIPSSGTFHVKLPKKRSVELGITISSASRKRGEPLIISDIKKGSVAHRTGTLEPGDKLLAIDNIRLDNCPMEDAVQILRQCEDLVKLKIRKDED
Chain of FRMPD4, Q14CM0 (Q14CM0 67-160): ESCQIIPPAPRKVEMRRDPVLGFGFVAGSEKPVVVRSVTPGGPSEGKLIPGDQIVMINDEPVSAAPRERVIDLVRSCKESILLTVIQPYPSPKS
Chain of MAST2, Q6P0Q8 (Q6P0Q8 1099-1202): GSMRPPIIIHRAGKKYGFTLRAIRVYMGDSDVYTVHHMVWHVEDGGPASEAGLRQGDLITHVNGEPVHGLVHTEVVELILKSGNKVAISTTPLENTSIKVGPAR
Chain of PICK1, Q9NRD5 (Q9NRD5 17-115): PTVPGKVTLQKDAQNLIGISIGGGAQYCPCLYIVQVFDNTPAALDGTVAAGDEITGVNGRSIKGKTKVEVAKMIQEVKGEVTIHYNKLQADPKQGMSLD
Chain of GRASP, Q7Z6J2 (Q7Z6J2 96-193): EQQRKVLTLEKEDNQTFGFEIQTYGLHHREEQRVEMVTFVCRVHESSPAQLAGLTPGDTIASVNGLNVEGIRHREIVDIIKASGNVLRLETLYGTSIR
Chain of LNX1_3, Q8TBB1 (Q8TBB1 500-596): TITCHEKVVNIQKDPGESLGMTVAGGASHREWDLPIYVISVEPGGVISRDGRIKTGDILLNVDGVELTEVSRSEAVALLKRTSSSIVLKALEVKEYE
Chain of GRIP2_7, Q9C0E4 (Q9C0E4 934-1023): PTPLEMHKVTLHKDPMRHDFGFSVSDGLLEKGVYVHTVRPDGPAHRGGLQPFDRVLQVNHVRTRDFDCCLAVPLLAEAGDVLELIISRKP
Chain of Inadl_5, Q8NI35 (Q8NI35 673-780): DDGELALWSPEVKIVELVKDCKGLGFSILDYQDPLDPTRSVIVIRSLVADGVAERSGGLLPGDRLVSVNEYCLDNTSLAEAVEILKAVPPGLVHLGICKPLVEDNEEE
Chain of LDB3, O75112 (O75112 1-94): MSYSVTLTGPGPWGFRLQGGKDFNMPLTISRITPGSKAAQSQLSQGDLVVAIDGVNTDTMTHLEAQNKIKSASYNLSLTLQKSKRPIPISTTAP
Chain of MAGI3_2, Q5TCQ9 (Q5TCQ9 398-503): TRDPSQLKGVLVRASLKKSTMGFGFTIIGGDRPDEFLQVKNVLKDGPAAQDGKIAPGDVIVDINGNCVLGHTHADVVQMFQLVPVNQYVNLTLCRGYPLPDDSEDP

pKd [1] | pKd [2] | pKd [3] | pKd [4] | pKd [5] | pKd [6] | pKd [7] | pKd [8] | pKd [9] | pKd [10] | pKd [11] | pKd [12] | pKd [13] | pKd [14] | pKd [15] | pKd [16] | pKd [17] | pKd [18] | pKd [19] | pKd [20] | Binder | also measured
below the threshold | below the threshold | below the threshold | below the threshold | below the threshold | below the threshold | 4.23 | below the threshold | 4.54 | below the threshold | below the threshold | 3.66 | below the threshold | 3.7 | below the threshold | below the threshold | below the threshold | 5.37 | below the threshold | below the threshold | RRVRKLPSTTL [RPS6KA1, Q15418] | pKd [21]: below the threshold; pKd [22]: 4.4; pKd [23]: 4.17; pKd [24]: below the threshold; pKd [25]: below the threshold; pKd [26]: 4.93; pKd [27]: 3.63; pKd [28]: 3.61
3.77 | 3.49 | below the threshold | 3.56 | below the threshold | below the threshold | 4.03 | 3.58 | 4.03 | below the threshold | below the threshold | below the threshold | 3.64 | 3.97 | 3.55 | below the threshold | below the threshold | 5.24 | below the threshold | below the threshold | DEDQHTQITKV [PTEN, P60484] | pKd [21]: 3.71; pKd [22]: 3.72; pKd [23]: 4.72; pKd [24]: 3.55; pKd [25]: below the threshold; pKd [26]: 5.1; pKd [27]: 3.71; pKd [28]: 3.46

The next lines start with the binder.

Binder | pKd [1] | pKd [2] | pKd [3] | pKd [4] | pKd [5] | pKd [6] | pKd [7] | pKd [8] | pKd [9] | pKd [10] | pKd [11] | pKd [12] | pKd [13] | pKd [14] | pKd [15] | pKd [16] | pKd [17] | pKd [18] | pKd [19] | pKd [20] | also measured
TEEEVQDTRL [CFTR, P13569] | below the threshold | below the threshold | below the threshold | below the threshold | below the threshold | below the threshold | below the threshold | below the threshold | 4.37 | below the threshold | 4.66 | below the threshold | below the threshold | below the threshold | below the threshold | below the threshold | below the threshold | 5.93 | below the threshold | below the threshold | pKd [21]: below the threshold; pKd [22]: 3.95; pKd [23]: below the threshold; pKd [24]: below the threshold; pKd [25]: below the threshold; pKd [26]: 4.23; pKd [27]: below the threshold; pKd [28]: below the threshold
NYWPGKETQL [SLCO1C1, Q9NYB5] | below the threshold | 4.68 | below the threshold | below the threshold | below the threshold | below the threshold | 4.75 | below the threshold | 5.28 | 3.94 | 4.35 | below the threshold | 4.74 | 5.37 | 4.9 | 5.47 | below the threshold | 6.05 | 4.14 | below the threshold | pKd [21]: 4.25; pKd [22]: 3.7; pKd [23]: below the threshold; pKd [24]: below the threshold; pKd [25]: below the threshold; pKd [26]: 4.62; pKd [27]: 5.02; pKd [28]: below the threshold
CNTVTVETVV [MAS1, P04201] | below the threshold | below the threshold | below the threshold | below the threshold | below the threshold | below the threshold | 3.78 | below the threshold | 3.93 | below the threshold | below the threshold | below the threshold | 4.06 | 4.29 | 4.19 | below the threshold | below the threshold | 3.92 | below the threshold | below the threshold | pKd [21]: below the threshold; pKd [22]: below the threshold; pKd [23]: below the threshold; pKd [24]: below the threshold; pKd [25]: below the threshold; pKd [26]: 4.27; pKd [27]: below the threshold; pKd [28]: 3.53
